For 31 variants, abundance fitness results are on record in the Human Domainome abundance scans (Beltran et al. 2025).

Sequences and labels used below:
B1: Zinc finger MYM-type protein 2, residues 463 to 506; numbered along this chain, Q9UBW7 (parent)
chain: IMNCCEQCGEYLPSKGAGNNVLVIDGQQKRFCCQSCVSEYKQVG

± gives the uncertainty stated by the source.

In the series the parent is B1. Briefly: abundance fitness (aPCA) (normalised: wild type 0, dead -1); higher = more abundant; growth selection in yeast, the domain comes from the species named. To be noted: Homo sapiens.
Turning to C32L, the abundance fitness is -0.451 ± 0.089. Under C32Q stands -0.518 ± 0.11; under M2K, 0.124 ± 0.1; under D25Q, -0.367 ± 0.17. The value for N19C was -0.069 ± 0.12; that for N19G was 0.006 ± 0.08; that for V23R was -0.011 ± 0.085.

As to A17D, the abundance fitness worked out at 0.012 ± 0.15. For N3V, the abundance fitness is -0.366 ± 0.1. The value for C33S was 0.024 ± 0.093.

With C33H, the abundance fitness is -0.09 ± 0.12. In the case of Y40L, the abundance fitness is -0.163 ± 0.089. Under I1P stands -0.222 ± 0.33. The value for I1T was -0.162 ± 0.14. Turning to C4K, the abundance fitness stood at 0.125 ± 0.12. Under Q27C stands -0.084 ± 0.17.

For the variant Q27S, the abundance fitness was -0.172 ± 0.12. The value for L22D was 0.001 ± 0.17. For V37D, the abundance fitness is -0.227 ± 0.1. The value for R30Q was 0.193 ± 0.085. The value for R30S was 0.111 ± 0.1; that for V43D was -0.123 ± 0.34. Regarding Y11G, the abundance fitness stood at 0.227 ± 0.073.

E6W: the abundance fitness is -0.375 ± 0.09. Under C36P stands -0.168 ± 0.22; under P13S, -0.207 ± 0.12. Under G44R stands -0.058 ± 0.094; under G44C, -0.157 ± 0.11. The value for I24Q was -0.177 ± 0.2; that for I24C was -0.124 ± 0.14; that for I24P was -0.126 ± 0.16.
